This series can be described thus: N-acetyl-β-amino acid acylase activity and optical selectivity of purified enzymes and cell-free extracts. Format: biochemical. The note with it: 30° C.; for Specific activity: purified enzyme after Mono-Q, 10 mM N acetyl-(R,S)-β-Phe, 50 mM Tris-HCl (pH 7.6); for Optical specificity (β-Phe enantiomer produced): purified enzyme, N-acetyl-(R,S)-β-Phe, 30 minutes. On the procedure: 10 mM N acetyl-(R,S)-β-Phe, 50 mM Tris-HCl (pH 7.6), and a reaction solution containing a suitable enzyme sample were left standing from 15 minutes to 2 hours at 30° C., and then processed by boiling for 5 minutes to stop the reaction. The reaction solution was centrifuged. The supernatant was suitably diluted and then analyzed by HPLC. Acylase activity that produced 1 μmol of (R)-β-Phe or (S)-β-Phe per minute under these standard reaction conditions was defined as one unit. Activity producing (R)-β-Phe from N-acetyl-(R,S)-β-Phe will be referred to as N-acetyl-(R)-β-Phe acylase activity and activity producing (S)-β-Phe will be referred to as N-acetyl-(S)-β-Phe acylase activity hereinafter.
(R)-β-Phe, (S)-β-Phe, N-acetyl-(R)-β-Phe, and N-acetyl-(S)-β-Phe were quantitatively analyzed. The column employed was an Inertsil ODS3 (0.46 cm in diameter, 5 cm) made by GL Science and a Chiralpak WH (0.46 cm in diameter, 25 cm) made by Daisel Chemical Industries, arranged consecutively in that order. The mobile phase was 0.25 mM CuSO4, 2 percent (v/v) acetonitrile. The flow rate was 1.5 mL/minute. The column temperature was 50° C. Detection was conducted with a UV detector at 210 nm. In this analysis, the above four compounds eluted out at different elution times. The elution sequence, in order of elution speed, was (S)-β-Phe, (R)-β-Phe, N-acetyl-(R)-β-Phe, and N-acetyl-(S)-β-Phe. The quantities were calculated from the peak area values relative to various standard products.
An Inertsil Ph-3 (0.46 cm in diameter, 25 cm) column made by GL Science was employed. The mobile phase was 10 percent acetonitrile (adjusted to pH 3.0 with phosphoric acid). The temperature was 40° C. The flow rate was 1.0 mL/min. Detection was conducted under UV conditions of 210 nm and peak area values were calculated based on comparison with various standard racemic products.
Optical selectivity was measured using the purified enzymes as enzyme sources. Reactions were conducted under the above enzyme conditions for a period of 30 minutes. The quantity of enzyme added was 4.6 μg/mL (N-acetyl-(R)-β-amino acid acylase) or 3.1 μg/mL (N-acetyl-(S)-β-amino acid acylase).
The K83 strain obtained was precultured for 16 hours at 37° C. in LB medium containing 100 mg/L of ampicillin. A 1 mL quantity of the cultured bacterial cells was transferred to 50 mL of TB medium containing 100 mg/L of ampicillin and 1 mM of IPTG and cultured for 16 hours at 30° C. […] When the N-acetyl-β-amino acid acylase activity was measured under the separation conditions of N-acetyl-β-Phe and β-Phe, a value of 2.3 U/mg was obtained.
JM109/ptrp4—3BR was cultured for 16 hours at 37° C. in LB medium containing 100 mg/L of ampicillin. […] The quantity of β-Phe produced was measured by HPLC. […]

B1: N-acetyl-(S)-β-amino acid acylase: enzyme purified from Burkholderia sp. AJ110349, subunit about 41 kDa, SEQ. ID. NO. 10 (protein)
chain: MDFCQMNDLASRKGRIQTVLGLIDPHELGPALMHEHLLIDLVPPKLAEDADHDQTEIDLCNCWKINYGQVPSLKNYRLDQKDVAVEELLEMRAAGGSAIVDLTTGGLKPDPQGLAQISREAGVHVVMGCGHYVHEYQDAANAHRSVDDFASEMIGQITEGAWGTQVRAGIIGEIGCQSPWTEQEKRVVRGALIAQQETGAALNIHPGRHAEQPQEVIDTIKSLGYPVERVIISHIDRTIFDDTRLLRLADSGCVIELDLFGWEQSAYPMSDIDMPNDGARLRMVRTLLDHGHAERVLISHDICTRTRLGRYGGHGYQHIFANVVPRMLRRDFTQDEIDTLLTRNPRRLLTFV
modifications: Burkholderia sp.AJ110349
notes: enzyme purified from Burkholderia sp; ID; NO; 10
For the molecule B1, the Specific activity is on record as 13.1 U/mg and the “Optical specificity (β-Phe enantiomer produced)” value is on record as “Only the production of (S)-β-Phe was observed”.

B2: N-acetyl-(R)-β-amino acid acylase: enzyme purified from Burkholderia sp. AJ110349, subunit about 84 kDa, SEQ. ID. NO. 8 (protein)
chain: MITITGYSDVLSAGPGETVEFKVSSKSPHPFTAELVRVIHADPNPAGPGMRFEPLGQVFSGTFASFDKPLLPGSFARVSGVPAAGSAAGLVAGARIRPTALARGDQCVMSQWNTARHAGFALLVSERGLELRLGAGTGEPPVCVLCAARLEVRWYDVWFAIDTASNRIEVGVTEVDGSVAAPVRHRTLQMLDARWRAPHSDDAADLLIGALEDGAGRRAHFNGQIEAPFVADALPSPATPAATVEYAAPRASDFSTDALYAAWDFARGIDTLKIADTTPHARHGTLQNLPTRAVRSSAWNGRERCWRTAPAHYAAIHFHDDDLHDAGWSTDFAFTVPATLKSGAYAMRLSVDGATDYLPFYVRPELGRPGAPLVFVAATYTYQAYANYARGNFDAALRDKVGRWGAYPHNPDDHPEVGLATYNLHSDGSGVMFSSRLRPMLTMRPGFLTFDDSRGSGCRHYIADSHLLDWLEHEGFSFDVVTDDDLERFGAALLEPYAAVLTGTHPEYHTAATLDALAGYKRSGGNLAYLGGNGFYWRVGRSERVPGALEVRRTEGGVRAWAAEAGEYFHALDGEYGGLWRSSARTPQQLVGVGFSSQGPFEGSHYRVLDAARSQPGGSLLKDIAGPLFGGYGLSGGGAAGFELDSTEAADGTPANVIILARSESHSAAFGPALDALLSHTATRARKTPDTLIRSEIVYYETGYGGAVFSVGSITFCGALSHNDYRNDVSTLLRNVLIRFSRDRGAQAHAVPAVAHTEVD
modifications: Burkholderia sp. AJ110349
Take B2: the Specific activity was 12.4 U/mg and the “Optical specificity (β-Phe enantiomer produced)” value is on record as “only the production of (R)-β-Phe was observed”.

The values above are taken from patent publication US7858348B2, “N-acetyl-(R,S)-beta-amino acid acylase gene” (Ajinomoto Co., Inc., priority 2006, dated 2010).
